Measured values: US20150328292A1, “CASPASE POLYPEPTIDES HAVING MODIFIED ACTIVITY AND USES THEREOF” (BELLICUM PHARMACEUTICALS, INC., priority 2014, published 2015)
Where a chain is given by its changes, count along the chain named. In names and notes the source's numbering stands.

B1: N405A: chimeric modified caspase-9 polypeptide variant (protein, UniProt P55211 1-416, looked up, variant N405A)
chain: MDEADRRLLRRCRLRLVEELQVDQLWDALLSRELFRPHMIEDIQRAGSGSRRDQARQLIIDLETRGSQALPLFISCLEDTGQDMLASFLRTNRQAAKLSKPTLENLTPVVLRPEIRKPEVLRPETPRPVDIGSGGFGDVGALESLRGNADLAYILSMEPCGHCLIINNVNFCRESGLRTRTGSNIDCEKLRRRFSSLHFMVEVKGDLTAKKMVLALLELAQQDHGALDCCVVVILSHGCQASHLQFPGAVYGTDGCPVSVEKIVNIFNGTSCPSLGGKPKLFFIQACGGEQKDHGFEVASTSPEDESPGSNPEPDATPFQEGLRTFDQLDAISSLPTPSDIFVSYSTFPGFVSWRDPKSGSWYVETLDDIFEQWAHSEDLQSLLLRVANAVSVKGIYKQMPGCFAFLRKKLFFKTS
modifications: chimeric, fused to FKBP12v36
notes: chimeric modified caspase-9 polypeptide variant
B2: D315A: chimeric modified caspase-9 polypeptide variant (protein, UniProt P55211 1-416, looked up, variant D315A)
chain: B1 chain with D315A, A405N
modifications: chimeric, fused to FKBP12v36
notes: as for B1
B3: N405T: chimeric modified caspase-9 polypeptide variant (protein, UniProt P55211 1-416, looked up, variant N405T)
chain: B1 chain with A405T
modifications: chimeric, fused to FKBP12v36
notes: as for B1
B4: N405F: chimeric modified caspase-9 polypeptide variant (protein, UniProt P55211 1-416, looked up, variant N405F)
chain: B1 chain with A405F
modifications: chimeric, fused to FKBP12v36
notes: as for B1
B5: G402Y: chimeric modified caspase-9 polypeptide variant (protein, UniProt P55211 1-416, looked up, variant G402Y)
chain: B1 chain with G402Y, A405N
modifications: chimeric with dimerization domain
notes: as for B1
B6: G402Q: chimeric modified caspase-9 polypeptide variant (protein, UniProt P55211 1-416, looked up, variant G402Q)
chain: B1 chain with G402Q, A405N
modifications: chimeric, fused to FKBP12v36
notes: as for B1
B7: G402I: chimeric modified caspase-9 polypeptide variant (protein, UniProt P55211 1-416, looked up, variant G402I)
chain: B1 chain with G402I, A405N
modifications: chimeric, fused to FKBP12v36
notes: as for B1
B8: ^402GCFNF^406ISAQT: caspase-9 with 402-406 residues replaced by those of Caspase-10 (protein, UniProt P55211 1-416, looked up, variant G402I C403S F404A N405Q F406T)
chain: B1 chain with G402I, C403S, F404A, A405Q, F406T
modifications: residues from caspase-10
B9: D315A-D330A: chimeric modified caspase-9 polypeptide double mutant (protein, UniProt P55211 1-416, looked up, variant D315A D330A)
chain: B1 chain with D315A, D330A, A405N
modifications: chimeric, fused to FKBP12v36
notes: chimeric modified caspase-9 polypeptide double mutant
B10: C403P: chimeric modified caspase-9 polypeptide variant (protein, UniProt P55211 1-416, looked up, variant C403P)
chain: B1 chain with C403P, A405N
modifications: chimeric, fused to FKBP12v36
notes: as for B1
B11: D327G: chimeric modified caspase-9 polypeptide variant (protein)
chain: VDGFGDVGALESLRGNADLAYILSMEPCGHCLIINNVNFCRESGLRTRTGSNIDCEKLRRRFSSLHFMVEVKGDLTAKKMVLALLELARQDHGALDCCVVVILSHGCQASHLQFPGAVYGTDGCPVSVEKIVNIFNGTSCPSLGGKPKLFFIQACGGEQKDHGFEVASTSPEDESPGSNPEPDATPFQEGLRTFGQLDAISSLPTPSDIFVSYSTFPGFVSWRDPKSGSWYVETLDDIFEQWAHSEDLQSLLLRVANAVSVKGIYKQMPGCFNFLRKKLFFKTSASRA
B12: L329K: chimeric modified caspase-9 polypeptide variant (protein)
chain: B11 chain with G195D, L197K
B13: Q328R: chimeric modified caspase-9 polypeptide variant (protein)
chain: B11 chain with G195D, Q196R
B14: L329G: chimeric modified caspase-9 polypeptide variant (protein)
chain: B11 chain with G195D, L197G
B15: A331K: chimeric modified caspase-9 polypeptide variant (protein)
chain: B11 chain with G195D, A199K
B16: Q328K: chimeric modified caspase-9 polypeptide variant (protein)
chain: B11 chain with G195D, Q196K
B17: D327R: chimeric modified caspase-9 polypeptide variant (protein)
chain: B11 chain with G195R
B18: F326K: chimeric modified caspase-9 polypeptide variant (protein)
chain: B11 chain with F194K, G195D
B19: D327K: chimeric modified caspase-9 polypeptide variant (protein)
chain: B11 chain with G195K

Tested on: HEK293T/16 cells
Experiment: SEAP reporter-based surrogate killing assay (basal activity and AP1903 IC50)
Assay type: cell-based, human
Settings: AP1903-independent SEAP activity, vs wild type
Procedure: FIG. 45 provides a schematic of an analysis of SEAP assays. […] of the mixture was seeded onto each well of a 96-well plate. […] For the assay, 4-methylumbelliferyl phosphate substrate was hydrolyzed by SEAP to 4-methylumbelliferon, a metabolite that can be excited with 364 nm and detected with an emission filter of 448 nm. Since SEAP is used as a marker for cell viability, reduced SEAP reading corresponds with increased icaspase-9 activities.
Early passage HEK293T/16 cells (ATCC, Manassas, Va.) were maintained in IMDM, GlutaMAX™ (Life Technologies, Carlsbad, Calif.) supplemented with 10% FBS, 100 U/mL penicillin, and 100 […] until transfection in a humidified, 37° C., 5% CO2/95% air atmosphere. Cells in logarithmic-phase growth were transiently transfected with 800 ng to 2 μg of expression plasmid encoding iCasp9 mutants and 500 ng of an expression plasmid encoding SRα promoter driven SEAP per million cells in 15-mL conical tubes. […] GeneJammer® Transfection Reagent at a ratio of 3 μl per ug of plasmid DNA was used to transiently transfect HEK293T/16 cells in the absence of antibiotics. 100 μl or 2 mL of the transfection mixture was added to each well in 96-well or 6-well plate, respectively.
Briefly, after 65° C. heat denaturation for 45 minutes to reduce background caused by endogenous (and serum-derived) alkaline phosphatases that are sensitive to heat, 5 μl of supernatants was added to 95 μl of PBS and added to 100 μl of substrate buffer, containing 1 μl of 100 mM 4-methylumbelliferyl phosphate (4-MUP; Sigma, St. Louis, Mo.) re-suspended in 2 M diethanolamine. Hydrolysis of 4-MUP by SEAP produces a fluorescent […] with excitation/emission (355/460 nm), which can be easily measured. Assays were performed in black opaque 96-well plates to minimize fluorescence leakage between wells (FIG. 45).

Row | Molecule | basal activity / basal signaling (in words)
1 | B1 | no effect
2 | B2 | reduced basal activity
3 | B3 | increased basal activity
4 | B4 | lowered basal activity
5 | B5 | catalytically inactive
6 | B6 | catalytically inactive
7 | B7 | catalytically inactive
8 | B8 | reduced basal activity
9 | B9 | inactive
10 | B10 | catalytically inactive
11 | B11 | did not lower basal activity
12 | B12 | did not lower basal activity
13 | B13 | did not lower basal activity
14 | B14 | did not lower basal activity
15 | B15 | did not lower basal activity
16 | B16 | did not lower basal activity
17 | B17 | did not lower basal activity
18 | B18 | did not lower basal activity
19 | B19 | did not lower basal activity
